The text below walks through data of article PMC7663122, “Protein-Assisted Room-Temperature Assembly of Rigid, Immobile Holliday Junctions and Hierarchical DNA Nanostructures”.

The target in data set [1] is T1, Redβ (single-strand annealing protein) (UniProt P03698 1-261).
T1 sequence: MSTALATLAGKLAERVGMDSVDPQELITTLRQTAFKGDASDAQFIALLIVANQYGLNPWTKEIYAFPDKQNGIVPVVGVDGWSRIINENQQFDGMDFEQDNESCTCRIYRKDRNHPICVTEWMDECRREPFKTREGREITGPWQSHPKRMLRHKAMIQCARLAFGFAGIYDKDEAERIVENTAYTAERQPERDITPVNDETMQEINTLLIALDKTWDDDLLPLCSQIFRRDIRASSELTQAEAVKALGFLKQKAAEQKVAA
Description: SEC, gel and AFM; excess Redβ (ssDNA/Redβ 1:25 stated), 25 °C, 1 mM MgCl2; B1 buffer: 50 mM Tris-HCl pH 8.0, 150 mM NaCl, 1 mM MgCl2, 25 °C (sticky-end assemblies); 44mer coating and annealing at 37 °C; SEC in 100 mM Tris-HCl pH 8.0, 150 mM NaCl, 1 mM MgCl2. The settings on record: protein: recombinant, tags: Strep-tag II, four-way junction. (Size exclusion chromatography separates by hydrodynamic size, large species first.)

The target of data set [2] is T1, Redβ (single-strand annealing protein). Description: EMSA (agarose) and AFM; strands coated first, then mixed; ssDNA/Redβ 1:1 and 1:2; completely coated at 1:1, slightly increased affinity vs 44mer; B1 buffer: 50 mM Tris-HCl pH 8.0, 150 mM NaCl, 1 mM MgCl2, 25 °C (sticky-end assemblies); 44mer coating and annealing at 37 °C; SEC in 100 mM Tris-HCl pH 8.0, 150 mM NaCl, 1 mM MgCl2. To be noted: protein: recombinant; tags: Strep-tag II; blunt-ended immobile four-way junction, 33 bp arms. (In general: In EMSA bound probe runs differently from free probe, usually more slowly.)

Data set [3] shares this target. Put plainly: EMSA (agarose) and AFM; strands coated first at 37 °C, then mixed; ssDNA/Redβ 1:1 to 1:4; weak interaction, residual free ssDNA at 1:1; B1 buffer: 50 mM Tris-HCl pH 8.0, 150 mM NaCl, 1 mM MgCl2, 25 °C (sticky-end assemblies); 44mer coating and annealing at 37 °C; SEC in 100 mM Tris-HCl pH 8.0, 150 mM NaCl, 1 mM MgCl2. To be noted: protein: recombinant; tags: Strep-tag II; blunt-ended immobile four-way junction, 22 bp arms.

Data set [4] has the same target. Description: EMSA (agarose), SEC and AFM; strands coated first, then mixed; ssDNA/Redβ 1:1 (incomplete) and 1:2 (saturated); B1 buffer: 50 mM Tris-HCl pH 8.0, 150 mM NaCl, 1 mM MgCl2, 25 °C (sticky-end assemblies); 44mer coating and annealing at 37 °C; SEC in 100 mM Tris-HCl pH 8.0, 150 mM NaCl, 1 mM MgCl2. The settings on record: protein: recombinant; tags: Strep-tag II; blunt-ended immobile four-way junction, 44 bp arms.

B1: S5S8 sticky-end Holliday junction (structured_DNA)
DNA 1: ATGTTGATCGGGAGAGGTCGAACCCTCTTTGATATTTGTGACTTTCGGGGCAACTATTTCCTCGGCGACCACGTTCGGTGACGGACCT
DNA 2: AGGTCCGTCACCGAACGTGGTCGCCGAGGAAATAGTTGCCCCGACAGGAAGCTAACTAACATGAGACAAAAATGTGGCCTCGTTACGG
DNA 3: TCTCATGTTAGTTAGCTTCCTGACGCCTGGCCGTATCTTCGGCTTACTATCGCCTTCAGCATGACC
DNA 4: AGCCGAAGATACGGCCAGGCGTAAGTCACAAATATCAAAGAGGGTTCGACCTCTCCCGATCAACAT
Regarding B1, the binding result in data set [1] (two 3' overhangs 22 nt (strands 2 and 3)) is “binds”.

B2: 66mer Holliday junction (structured_DNA)
DNA 1: ATGCCGCATACAACAAGTGGGGGGATGAATAGGATGTACTGCCTTTTTTATCGACTGTCCAATATG
DNA 2: CATATTGGACAGTCGATAAAAAAGGCAGTACATACTTGGTCCACTCTGGTACAAGATGAGGTGGAT
DNA 3: ATCCACCTCATCTTGTACCAGAGTGGACCAAGTAGTGCGCGATTGACGTTCGAGGCGGACTCTCCT
DNA 4: AGGAGAGTCCGCCTCGAACGTCAATCGCGCACTCCTATTCATCCCCCCACTTGTTGTATGCGGCAT
As for B2, in data set [2], the binding result was “binds”.

B3: S1S4 sticky-end Holliday junction (structured_DNA)
DNA 1: GATTCCTTCCGGGCGAATTTACCCCAGTGAACGCTGGTCCCCGCGGTCATGCTGAAGGCGATAGTA
DNA 2: GCGGGGACCAGCGTTCACTGGGTTATTGGGTATGACGAGCTTAGATTTGGTATATGGTCTCGACTA
DNA 3: TAGTCGAGACCATATACCAAATCTAAGCTCGTCATACCCAATAAGATGTACGTTGGCGGACAGTTACATATTGTGCGCTGCCGGTGGC
DNA 4: GCCACCGGCAGCGCACAATATGTAACTGTCCGCCAACGTACATCGTAAATTCGCCCGGAAGGAATCCCGTAACGAGGCCACATTTTTG
As to B3, the binding result in data set [1] (two 3' overhangs 22 nt (strands 1 and 4)) was “binds”.

B4: 44mer Holliday junction (structured_DNA)
DNA 1: CGATGCGAAATCTGTACGCGCACCACGTGAAGGTGCTAGTCCCC
DNA 2: GAATGTGTTGATGGTTAAGTTCTGCGCGTACAGATTTCGCATCG
DNA 3: GTGTCTATCATTAGCGGCTCAAGAACTTAACCATCAACACATTC
DNA 4: GGGGACTAGCACCTTCACGTGGTTGAGCCGCTAATGATAGACAC
As to B4, the binding result in data set [3] is reported as “binds”.

B5: 88mer Holliday junction (structured_DNA)
DNA 1: CAGTTCCCTAAGACATCGACGTAGGACCTTGATCAACGCAGCTATGACTTCAGAGATTCTCTTATCTGGAAGCGTCCACGAACCGGCC
DNA 2: GGCCGGTTCGTGGACGCTTCCAGATAAGAGAATCTCTGAAGTCATTTGTACACTTTTCTATTCACGAGCAAAGCCTGGTATACTAGAA
DNA 3: TTCTAGTATACCAGGCTTTGCTCGTGAATAGAAAAGTGTACAAACCCACATTGCCATCGGGCGAAATGGGGTGTGCAGCGCATGCTCG
DNA 4: CGAGCATGCGCTGCACACCCCATTTCGCCCGATGGCAATGTGGGTAGCTGCGTTGATCAAGGTCCTACGTCGATGTCTTAGGGAACTG
On to B5, for which the binding result in data set [4] is recorded as “binds”.
